Two sequences from patent publication US20230272016A1, “PEPTIDES FOR IMMUNOTHERAPY” (Second Genome, Inc., priority 2020, published 2023) can be followed below.

“Also recorded” adds a separate entry of the source.

What all share (type): cell-based
One assay deals with T1, SSTR1 (Homo sapiens, UniProt P30872).
T1 construct: expressed in transfected cells
Briefly: PathHunter β-Arrestin GPCR assay (gpcrMAX). The text has this:
(§1) The PathHunter® β-Arrestin Assay monitored activation of a panel of 168 G-protein coupled receptors (GPCRs) with […] activation of the GPCR in agonist and antagonist mode.
(§2) where the test sample is the peptide, the vehicle control=DMSO (0% activity), and the control ligand=control compound (100% activity).
(§3) Peptides SG-3-00802 and SG-3-05021 were identified as an agonist, an antagonist, a PAM (Positive Allosteric Modulator), or an inverse-agonist. Agonist, antagonist, PAM, and inverse-agonist were identified according to the guidelines in Table 18. The basal activity/noise is a % activity of −20% to 20% for both agonist and antagonist modes. A PAM (Positive Allosteric Modulator) binds to a receptor, at a different site than the agonist, to change the receptor's response to the agonist. An inverse-Agonist is a binding partner with agonistic shutting down of basal activity in the cell. An antagonist antagonizes the activity of a particular binding partner.

The target of assay [1] is T2, CCR7 (Homo sapiens, UniProt P32248).
T2 construct: expressed in transfected cells
T2 sequence (P32248 25-378): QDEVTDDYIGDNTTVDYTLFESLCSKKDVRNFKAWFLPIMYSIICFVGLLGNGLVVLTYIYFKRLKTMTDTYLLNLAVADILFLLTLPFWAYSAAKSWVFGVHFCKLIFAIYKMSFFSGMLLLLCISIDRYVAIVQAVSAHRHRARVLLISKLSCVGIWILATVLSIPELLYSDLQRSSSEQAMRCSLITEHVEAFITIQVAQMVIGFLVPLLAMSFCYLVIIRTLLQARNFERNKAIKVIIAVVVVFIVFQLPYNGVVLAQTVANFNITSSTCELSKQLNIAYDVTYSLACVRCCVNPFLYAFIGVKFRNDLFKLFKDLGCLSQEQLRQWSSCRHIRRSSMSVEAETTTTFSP
Briefly: SelectScreen chemokine receptor U2OS agonist/antagonist assay. As to conditions: CCR7 expressing U2OS cells. Here is the method:
(§4) Peptides SG-3-00802 and SG-3-05021 were screened for agonist and antagonist activity of the chemokine receptors CCR7, CXCR3, and CXCR4.
(§5) In agonist assays, chemokine receptor expressing U2OS cells are thawed and resuspended in Assay Media (DMEM, 1% dialyzed FBS, 25 mM HEPES pH 7.3, 0.1 mM NEAA, 100 U/mL/100 μg/mL Pen/Strep) to a concentration of 312,500 cells/mL. 4 μL of a 10×serial dilution of I-TAC (control agonist starting concentration, 500 nM) or compounds are added to appropriate wells of a 384-well TC-Treated assay plate. 32 μL of cell suspension (10,000 cells) is added to each well. 4 μL of Assay Media is added to all wells to bring the final assay volume to 40 μL. The plate is incubated for 16-24 hours at 37° C./5% CO2 in a humidified incubator. 8 μL of 1 μM Substrate+Solution D Loading Solution is added to each well and the plate is incubated for 2 hours at room temperature. The plate is read on a fluorescence plate reader.
(§6) In antagonist assays, CXCR3-bla U2OS cells were thawed and prepared as described above for the Agonist assay. 4 μL of 10×compounds or assay media was added to appropriate wells of a TC-Treated assay plate. 32 μL of cell suspension was added to the wells and pre-incubated at 37° C./5% CO2 in a humidified incubator with compounds and control antagonist titration for 30 minutes. 4 μL of 10×control agonist I-TAC at the pre-determined EC80 concentration is added to wells containing the control antagonist or compounds. The plate is incubated for 16-24 hours at 37° C./5% CO2 in a humidified incubator. 8 μL of 1 μM Substrate+Solution D Loading Solution is added to each well and the plate is incubated for 2 hours at room temperature. The plate is read on a fluorescence plate reader.

Assay [2] deals with T3, CXCR3 (Homo sapiens, UniProt P49682).
T3 sequence (P49682 1-368): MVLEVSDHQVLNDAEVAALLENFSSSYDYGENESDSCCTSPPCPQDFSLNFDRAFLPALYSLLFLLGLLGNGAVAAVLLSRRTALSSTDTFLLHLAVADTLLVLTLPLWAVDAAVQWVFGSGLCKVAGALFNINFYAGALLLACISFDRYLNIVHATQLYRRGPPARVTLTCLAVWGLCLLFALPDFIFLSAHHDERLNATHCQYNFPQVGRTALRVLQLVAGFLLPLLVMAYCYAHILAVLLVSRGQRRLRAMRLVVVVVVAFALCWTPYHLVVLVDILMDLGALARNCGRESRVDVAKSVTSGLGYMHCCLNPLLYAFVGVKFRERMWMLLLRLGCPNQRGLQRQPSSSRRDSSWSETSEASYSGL
Described as above. Also noted: host or cells: CXCR3-bla U2OS. As to conditions: CXCR3-bla U2OS cells; for SelectScreen Antagonist Mode: control agonist I-TAC (CXCL11) at EC80. As for the experimental part: as §4, §5, §6
Activity assays for CXCR4, CXCR3, and CCR7 were performed in agonist and antagonist mode for both SG-3-00802 and SG-3-05021 peptides. […] SG-3-00802 and SG-3-05021 may allow for a mechanism to enhance CXCR3 activation already shown to be a critical pathway in numerous publications as mediating anti-tumor treatment.

Assay [3] concerns Human monocyte-derived dendritic cells (moDCs). Briefly: moDC stimulation with low dose LPS and peptide, flow cytometry. The following applies: LPS 2 ng/mL with peptide 10 μM. Here is the method: Human monocyte-derived dendritic cells (moDCs) were stimulated with low dose lipopolysaccharide (LPS) (2 ng/mL) alone, LPS with peptides SG-3-00802 (10 μM) or SG-3-05021 (10 μM), and LPS (2 ng/mL) with IFNg (50 ng/mL) as a positive control. After stimulation of moDCs, flow cytometry was used to determine induction of the CSCR3 receptor.
(In general: Flow cytometry measures light scatter and fluorescence of single cells or particles in a stream.)

For assay [4], the system named is human purified monocyte-derived dendritic cells. The assay is described as follows: Chemokine release from LPS stimulated monocyte-derived dendritic cells. As to conditions: LPS at low concentrations, suboptimal activation. The text has this: LPS was used at low concentrations for a suboptimal activation of dendritic cells in the presence of SG-3-00802 peptide or SG-3-05021 peptide.

For the next assay, the target named is T4, CXCR4 (Homo sapiens, UniProt P61073).
T4 construct: expressed in transfected cells
T4 sequence (P61073 whole entry): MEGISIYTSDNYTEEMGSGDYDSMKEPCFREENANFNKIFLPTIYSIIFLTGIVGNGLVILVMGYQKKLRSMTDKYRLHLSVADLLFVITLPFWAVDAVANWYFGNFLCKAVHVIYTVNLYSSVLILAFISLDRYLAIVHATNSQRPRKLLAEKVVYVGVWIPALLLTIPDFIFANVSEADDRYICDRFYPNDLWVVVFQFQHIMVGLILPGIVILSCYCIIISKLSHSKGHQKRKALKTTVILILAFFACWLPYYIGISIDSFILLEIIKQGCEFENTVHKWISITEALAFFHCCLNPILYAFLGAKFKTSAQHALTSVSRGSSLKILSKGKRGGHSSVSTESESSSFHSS
Briefly: PathHunter β-Arrestin GPCR assay (gpcrMAX). As to conditions: vehicle DMSO = 0%, control ligand = 100%.
Source text: as §1, §2, §3

Assay [5] addresses T2, CCR7. The assay is described as follows: PathHunter β-Arrestin GPCR assay (gpcrMAX). The following applies: vehicle DMSO = 0%, control ligand = 100%.
Source text: as §1, §2, §3

The target in assay [6] is T3, CXCR3. The assay is described as follows: PathHunter β-Arrestin GPCR assay (gpcrMAX). The following applies: vehicle DMSO = 0%, control ligand = 100%.
Source text: as §1, §2, §3

T1 sequence (P30872 whole entry): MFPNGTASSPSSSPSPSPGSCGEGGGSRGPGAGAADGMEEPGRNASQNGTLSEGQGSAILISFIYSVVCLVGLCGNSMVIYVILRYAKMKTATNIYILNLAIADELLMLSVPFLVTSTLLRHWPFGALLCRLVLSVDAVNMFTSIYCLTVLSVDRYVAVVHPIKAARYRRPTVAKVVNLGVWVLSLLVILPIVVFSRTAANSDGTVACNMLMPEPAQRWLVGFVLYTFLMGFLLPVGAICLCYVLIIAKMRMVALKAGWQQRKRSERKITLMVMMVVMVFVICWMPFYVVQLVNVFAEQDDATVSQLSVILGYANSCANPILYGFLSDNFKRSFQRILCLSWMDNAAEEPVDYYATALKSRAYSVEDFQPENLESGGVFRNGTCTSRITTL

For “MKVRPSVKPMCEKCKIIRRKGRVMVICENPKHKQRQG [SG-3-00802, peptide from oscillibacter.sp t_155102]”, in the assay with SSTR1, the “GPCR target assay Interpretation” value is recorded as “Inverse-agonist”. In addition, in the assay with CCR7 [1], the “SelectScreen Agonist Mode” value is “weak agonistic activity and No”. In the assay with CXCR3 [2], the “SelectScreen Agonist Mode” value was “weak agonistic activity and No”; the “SelectScreen Antagonist Mode” value is on record as “potent reverse antagonistic activity (sensitization); also recorded: sensitized CXCR3; also recorded: Sensitizer”. Further, in assay [3], the CXCR3 receptor internalization entry was “did not induce CXCR3 receptor internalization” and the DC-SIGN expression result is listed as “down-regulate DC-SIGN”. Also, the CXCL10 chemokine release entry in assay [4] is reported as “dose-dependent increase”.

Consider “LGKTDWIEKYFKVKKEKIDKMQRFLQG [SG-3-05021, peptide from bacteroides.clarus.dsm.22519]”, for which, in the assay with SSTR1, the “GPCR target assay Interpretation” value is “Inverse-agonist and PAM”. Moreover, the “% Agonist Activity (gpcrMAX Agonist Mode)” value is listed as 1% in the assay with CXCR4, 0% with CCR7 [5] and −4% in the assay with CXCR3 [6]. Also, the results for the “% Antagonist Activity (gpcrMAX Antagonist Mode)” value with CXCR4, with CCR7 [5] and with CXCR3 [6] were 10%, −18% and −20%, respectively. The “SelectScreen Agonist Mode” value was “no agonistic activity and No” with CCR7 [1]; “no agonistic activity and No” with CXCR3 [2]. In the assay with CXCR3 [2], the “SelectScreen Antagonist Mode” value is on record as “sensitized CXCR3; also recorded: Sensitizer”. Besides, the CXCR3 receptor internalization result in assay [3] was “did not induce CXCR3 receptor internalization”. The DC-SIGN expression result in assay [3] was “down-regulate DC-SIGN”. Moreover, the CXCL10 chemokine release entry in assay [4] is “dose-dependent increase”.
